Columns and labels:
Assay in all cases: SPR (Biacore)
[1] = target: T1, HER3 (UniProt P21860 20-643, limits assumed)
T1 construct: Antigen as used in Biacore; also called ErbB3

[2] = target: T2, cMet (UniProt P08581 25-932, limits assumed)
T2 construct: Antigen as used in Biacore

[3] = target: T2, cMet; remark: listed apart in the source

T2 sequence (P08581 25-932 limits assumed): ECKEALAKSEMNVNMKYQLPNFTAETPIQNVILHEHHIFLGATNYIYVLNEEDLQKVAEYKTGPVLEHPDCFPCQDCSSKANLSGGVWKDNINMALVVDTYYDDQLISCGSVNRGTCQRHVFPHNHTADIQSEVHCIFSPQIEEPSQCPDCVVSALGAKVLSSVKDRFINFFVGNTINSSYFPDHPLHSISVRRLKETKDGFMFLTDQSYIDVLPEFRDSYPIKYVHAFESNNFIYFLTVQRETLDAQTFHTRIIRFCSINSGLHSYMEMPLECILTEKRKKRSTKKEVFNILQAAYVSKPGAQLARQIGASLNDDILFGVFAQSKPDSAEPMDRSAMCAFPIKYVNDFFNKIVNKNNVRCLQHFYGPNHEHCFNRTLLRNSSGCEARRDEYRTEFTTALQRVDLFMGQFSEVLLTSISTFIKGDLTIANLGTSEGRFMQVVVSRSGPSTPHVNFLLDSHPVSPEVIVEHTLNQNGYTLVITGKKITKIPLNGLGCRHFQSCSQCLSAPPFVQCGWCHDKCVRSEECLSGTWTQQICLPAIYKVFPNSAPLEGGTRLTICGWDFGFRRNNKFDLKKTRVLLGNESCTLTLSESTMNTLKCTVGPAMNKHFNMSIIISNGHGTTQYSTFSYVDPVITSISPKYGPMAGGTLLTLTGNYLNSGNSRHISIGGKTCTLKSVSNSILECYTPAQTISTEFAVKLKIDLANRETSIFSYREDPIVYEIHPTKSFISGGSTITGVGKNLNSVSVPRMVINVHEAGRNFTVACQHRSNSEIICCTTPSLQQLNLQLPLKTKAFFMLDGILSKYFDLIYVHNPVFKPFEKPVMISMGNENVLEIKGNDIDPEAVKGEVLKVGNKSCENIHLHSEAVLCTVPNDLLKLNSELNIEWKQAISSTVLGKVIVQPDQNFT

| Binder | Kd [1] [nM] | koff [1] [s⁻¹] | kon [1] [M⁻¹ s⁻¹] | Kd [2] [nM] | koff [2] [s⁻¹] | kon [2] [M⁻¹ s⁻¹] | fold improved affinity against the restricted form [3] [fold] | fold reduced affinity against the Wildtype Fab [3] [fold] |
| --- | --- | --- | --- | --- | --- | --- | --- | --- |
| Her3_MetSS_KHSS_FS1 (protease cleavage during expression) (bispecific antibody, Trivalent Her3-cMet bispecific: full length anti-Her3 IgG with knobs-into-holes, cMet dsFv (VHCys44/VLCys100) at the C-termini; Arg/Lys residues before the cleavage site were removed) heavy 1: not shown heavy 2: not shown ALGGGGSGGGGSDIQMTQSPSSLSASVGDRVTITCKSSQSLLYTSSQKNYLAWYQQKPGKAPKLLIYWASTRESGVPSRFSGSGSGTDFTLTISSLQPEDFATYYCQQYYAYPWTFGCGTKVEIKR light: DIQMTQTTSSLSASLGDRVTISCRARQDISNYLNWYQRKPDGTVKLLIYYTSRLHSGVPSRFSGSGSGTDYSLTISNLEQEDIATYFCQQGNTFPWTFGGGTKLEIKRTVAAPSVFIFPPSDEQLKSGTASVVCLLNNFYPREAKVQWKVDNALQSGNSQESVTEQDSKDSTYSLSSTLTLSKADYEKHKVYACEVTHQGLSSPVTKSFNRGEC | 2.05 | 0.000338 | 165000 | 6.05 | 0.000188 | 31200 |  |  |
| Her3_MetSS_KHSS_PreSci (purified intermediate) (bispecific antibody, human IgG1, kappa, also called restricted dsFv module; double-tethered dsFv) heavy 1: not shown heavy 2: not shown light: DIQMTQTTSSLSASLGDRVTISCRARQDISNYLNWYQRKPDGTVKLLIYYTSRLHSGVPSRFSGSGSGTDYSLTISNLEQEDIATYFCQQGNTFPWTFGGGTKLEIKRTVAAPSVFIFPPSDEQLKSGTASVVCLLNNFYPREAKVQWKVDNALQSGNSQESVTEQDSKDSTYSLSSTLTLSKADYEKHKVYACEVTHQGLSSPVTKSFNRGEC | 2.4 | 0.000414 | 172000 | 369 | 0.000197 | 533 |  | > 20 |

Continued by falling Kd [2], values first:

| Kd [1] [nM] | koff [1] [s⁻¹] | kon [1] [M⁻¹ s⁻¹] | Kd [2] [nM] | koff [2] [s⁻¹] | kon [2] [M⁻¹ s⁻¹] | fold improved affinity against the restricted form [3] [fold] | fold reduced affinity against the Wildtype Fab [3] [fold] | Binder |
| --- | --- | --- | --- | --- | --- | --- | --- | --- |
| 2.02 | 0.000356 | 176000 | 8.35 | 0.000203 | 24300 | > 30 |  | Her3_MetSS_KHSS_PreSci_digested (after purification and protease cleavage) (bispecific antibody, the VL stays attached through the dsFv disulfide) heavy 1: not shown heavy 2: not shown GPSGGGGSGGGGSDIQMTQSPSSLSASVGDRVTITCKSSQSLLYTSSQKNYLAWYQQKPGKAPKLLIYWASTRESGVPSRFSGSGSGTDFTLTISSLQPEDFATYYCQQYYAYPWTFGCGTKVEIKR light: DIQMTQTTSSLSASLGDRVTISCRARQDISNYLNWYQRKPDGTVKLLIYYTSRLHSGVPSRFSGSGSGTDYSLTISNLEQEDIATYFCQQGNTFPWTFGGGTKLEIKRTVAAPSVFIFPPSDEQLKSGTASVVCLLNNFYPREAKVQWKVDNALQSGNSQESVTEQDSKDSTYSLSSTLTLSKADYEKHKVYACEVTHQGLSSPVTKSFNRGEC |
|  |  |  | 7.05 | 0.000193 | 27400 |  |  | Her3_MetSS_KHSS_FS2 (protease cleavage during expression) (bispecific antibody, As m1 but with furin site variant 2) heavy 1: not shown heavy 2: not shown SLGGGGSGGGGSDIQMTQSPSSLSASVGDRVTITCKSSQSLLYTSSQKNYLAWYQQKPGKAPKLLIYWASTRESGVPSRFSGSGSGTDFTLTISSLQPEDFATYYCQQYYAYPWTFGCGTKVEIKR light: DIQMTQTTSSLSASLGDRVTISCRARQDISNYLNWYQRKPDGTVKLLIYYTSRLHSGVPSRFSGSGSGTDYSLTISNLEQEDIATYFCQQGNTFPWTFGGGTKLEIKRTVAAPSVFIFPPSDEQLKSGTASVVCLLNNFYPREAKVQWKVDNALQSGNSQESVTEQDSKDSTYSLSSTLTLSKADYEKHKVYACEVTHQGLSSPVTKSFNRGEC |

From patent US20130267686A1 (HOFFMAN LA ROCHE, published 2013)
